For series [1], the target named is Full length activated FXIIa (α‐FXIIa) (UniProt P00748).
Target sequence in this assay (P00748 20-615): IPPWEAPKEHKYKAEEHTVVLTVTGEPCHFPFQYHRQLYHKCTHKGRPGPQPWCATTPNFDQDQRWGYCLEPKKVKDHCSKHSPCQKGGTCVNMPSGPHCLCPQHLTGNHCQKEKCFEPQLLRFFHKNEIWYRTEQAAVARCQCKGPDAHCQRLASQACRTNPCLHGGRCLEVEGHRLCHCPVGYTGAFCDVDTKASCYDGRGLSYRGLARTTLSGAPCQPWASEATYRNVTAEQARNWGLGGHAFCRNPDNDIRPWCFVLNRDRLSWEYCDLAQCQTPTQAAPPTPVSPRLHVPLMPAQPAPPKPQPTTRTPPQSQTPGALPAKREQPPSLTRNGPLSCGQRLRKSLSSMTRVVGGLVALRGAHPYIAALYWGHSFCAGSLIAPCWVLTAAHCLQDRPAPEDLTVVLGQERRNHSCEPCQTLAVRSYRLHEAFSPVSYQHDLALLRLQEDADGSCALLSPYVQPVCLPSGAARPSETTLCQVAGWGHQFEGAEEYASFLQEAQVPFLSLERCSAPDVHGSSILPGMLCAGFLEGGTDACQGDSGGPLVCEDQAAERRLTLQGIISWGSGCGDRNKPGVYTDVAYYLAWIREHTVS
For series [2] the target is unchanged. This is another data set of the same source.
The subject of series [3] is thrombin. The note with it: previous reports; cited from earlier work.
For series [4], the system named is FIXa. The settings on record: cited from earlier work. The text has this: (§1) The canonical docking pose that we observed for FXIIa–CTI is similar to the trypsin–CTI and HGFA–CTI complexes predicted by CLUSPRO, albeit that there are fewer interactions overall for trypsin and HGFA, owing to Asp60A (H1 pocket) being absent in these proteases.
The test system of series [5] is kallikrein. The note with it: cited from earlier work.
Description: as §1

Series [6] addresses T1, α‐FXIIa (Homo sapiens, UniProt P00748).
T1 construct: purchased Enzyme Research Laboratories (Swansea, UK)
T1 sequence (P00748 373-615 limits assumed): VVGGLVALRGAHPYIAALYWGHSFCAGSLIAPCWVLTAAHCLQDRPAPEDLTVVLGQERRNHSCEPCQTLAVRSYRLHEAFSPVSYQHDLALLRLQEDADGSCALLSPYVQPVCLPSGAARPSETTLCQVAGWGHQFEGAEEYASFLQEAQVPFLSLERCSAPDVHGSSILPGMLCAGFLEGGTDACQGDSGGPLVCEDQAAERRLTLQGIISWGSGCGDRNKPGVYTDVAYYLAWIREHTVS
T1 sequence (P00748 20-372 partner limits assumed): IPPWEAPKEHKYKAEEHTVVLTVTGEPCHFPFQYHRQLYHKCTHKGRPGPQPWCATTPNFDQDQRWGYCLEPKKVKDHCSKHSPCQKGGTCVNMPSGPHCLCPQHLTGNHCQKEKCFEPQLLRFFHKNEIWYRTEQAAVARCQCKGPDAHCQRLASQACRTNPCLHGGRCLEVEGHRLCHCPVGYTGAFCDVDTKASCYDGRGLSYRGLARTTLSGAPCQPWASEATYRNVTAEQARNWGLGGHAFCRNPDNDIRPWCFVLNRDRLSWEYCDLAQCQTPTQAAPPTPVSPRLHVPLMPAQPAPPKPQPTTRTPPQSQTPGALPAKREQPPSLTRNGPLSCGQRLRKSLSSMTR
Briefly: Kinetic analysis of the CTI inhibitory mechanism (Michaelis–Menten / Lineweaver–Burk, S‐2302). The series is classed as biochemical. The note with it: 0.1 to 0.6 mM substrate peptide, 10 nM α‐FXIIa. As to the method: (§2) The enzymatic activity of α‐FXIIa was measured by monitoring the amount of pNA chromophore released from substrate H‐D‐Pro‐Phe‐Arg‐pNA (S‐2302). Assays were performed in a 100‐μL volume at 33 °C in 96‐well plates in a Perkin Elmer (Seer Green, UK) Envision plate reader, and pNA release was followed over a period of 6 h by reading the absorbance at 405 nm. Absorbance values were converted to pNA concentrations by comparison with a standard curve obtained under exactly the same instrument conditions. All absorbance values were within the linear measurement range of the instrument. Initial rates were calculated on the basis of the first 30 min of incubation. To assess the K M, concentrations of substrate peptide between 0.1 mM and 0.6 mM were incubated with 10 nM α‐FXIIa, enzymatic activity was measured as described above, and data were analyzed by non‐linear regression with the Michaelis–Menten algorithm (GRAPHPAD PRISM, version 6.04). To assess the inhibitory mechanism of CTI, 30 nM CTI was incubated with these same concentrations of substrate peptide, the reaction was initiated by the addition of 10 nM α‐FXIIa, enzymatic activity was measured as described above, and data were analyzed by non‐linear regression with the Michaelis–Menten algorithm (GRAPHPAD PRISM, version 6.04) and by linear regression after Lineweaver–Burk transformation. To assay inhibitors, concentrations of CTI variant proteins between 10^−8 M and 10^−5 M or concentrations of peptides between 10^−6 M and 10^−3 M were incubated with 200 μM substrate peptide, the reaction was initiated by addition of 10 nM α‐FXIIa, enzymatic activity was measured as described above, and IC50 values were determined by non‐linear regression analysis (GRAPHPAD PRISM, version 6.04) using the log[inhibitor] versus response – variable slope algorithm with a bottom constraint.
Figure S3: analysis of CTI inhibitory mechanism
0.1 to 0.6 mM of substrate peptide was incubated without (open symbols) or with 30 nM CTI (closed symbols), after which 10 nM α -FXIIa (equalling to 1 pmol of enzyme) was added and enzyme activity was measured as described in the method section. Data were analysed by non-linear regression (top left panel) and linear regression after Lineweaver Burk […]

Series [7] has as its system FVIIa. The note with it: cited from earlier work.
Series [8] concerns the target Full length activated FXIIa (α‐FXIIa) (UniProt P00748). This is another data set of the same source.
Series [9] concerns FXIa. The settings on record: previous reports; cited from earlier work.
In series [10] the target is T1, α‐FXIIa. Briefly: α‐FXIIa enzymatic assay (S‐2302 chromogenic substrate cleavage, pNA release). Format: biochemical. The note with it: CTI variant proteins 10^−8 M to 10^−5 M, 200 μM S‐2302, 10 nM α‐FXIIa, 33 °C, initial rate of first 30 min, A405; SE of the fit, n = 3–5 independent experiments; SEM. On the procedure:
as §2

Numbering of substitutions follows the chain as printed. In names and notes the source's numbering stands. Read-outs that look alike come from different tables or passages of the source.

In series [1], YVTSRTAGIGPRLPWPELKRR [CTI(23–43) synthetic peptide] returned an IC50 of inhibition of α‐FXIIa enzymatic activity (S‐2302 cleavage) of 1100 µM and a pIC50 of inhibition of α‐FXIIa enzymatic activity (S‐2302 cleavage) of 2.94.

In series [1], CRWYVTSRTAGIGPRLPWPELKRRC [CTI(20–44) synthetic peptide] yielded an IC50 of inhibition of α‐FXIIa enzymatic activity (S‐2302 cleavage) of 290 µM and a pIC50 of inhibition of α‐FXIIa enzymatic activity (S‐2302 cleavage) of 3.54.

B1: commercial corn trypsin inhibitor (CTI) (natural protein)
chain: SAGTSCVPGWAIPHNPLPSCRWYVTSRTCGIGPRLPWPELKRRCCRELADIPAYCRCTALSILMDGAIPPGPDAQLEGRLEDLPGCPREVQRGFAATLVTEAECNLATIS
Usually Ki stands for the equilibrium dissociation constant of an inhibitor or competing ligand from its target. In general, Km refers to the substrate concentration at which the rate is half of its maximum. With B1, in [2], the IC50 of inhibition of α‐FXIIa enzymatic activity (S‐2302 cleavage) was 0.11 µM and the pIC50 of inhibition of α‐FXIIa enzymatic activity (S‐2302 cleavage) turned out to be 6.97. The “Inhibition of thrombin, in words” value in [3] was “does not inhibit”. The “Inhibition of FIXa, in words” value in series [4] is “does not inhibit”. In addition, the “Inhibition of kallikrein, in words” value in series [5] is “does not inhibit”. The Inhibitory mechanism result in series [6] (30 nM CTI) was “competitive inhibitory mechanism”. In [6] (30 nM CTI, Fig. S3), the affinity corresponds to a Ki of 0.029 ± 0.004 µM. Further, in series [6] (in the presence of 30 nM CTI, Fig. S3), the kcat was found to be 15 ± 2. The Km in series [6] (in the presence of 30 nM CTI, Fig. S3, read-out: Km app) amounted to 301 ± 72 µM. For the same molecule, the “Inhibition of FVIIa, in words” value in series [7] is on record as “does not inhibit”. This molecule showed a pIC50 of inhibition of α‐FXIIa enzymatic activity (S‐2302 cleavage) in series [8] of 6.95. Also, the “Inhibition of FXIa, in words” value in series [9] is “weakly inhibits”. Besides, the “pIC50 ± SE” value in series [10] turned out to be 6.97 ± 0.04.

In [1], RWYVTSRTAGIGPRLPWPELKR [CTI(21–42) synthetic peptide] yielded an IC50 of inhibition of α‐FXIIa enzymatic activity (S‐2302 cleavage) of 200 µM and a pIC50 of inhibition of α‐FXIIa enzymatic activity (S‐2302 cleavage) of 3.7.

Consider RWYVTSRTAGIGPRLPWPELKRR [CTI(21–43) synthetic peptide], for which, in [1], the IC50 of inhibition of α‐FXIIa enzymatic activity (S‐2302 cleavage) is 460 µM and the pIC50 of inhibition of α‐FXIIa enzymatic activity (S‐2302 cleavage) turned out to be 3.34.

B2: G30W: rec‐CTI variant, replacement of Gly30 with a tryptophan (protein)
chain: SAGTSCVPGWAIPHNPLPSCRWYVTSRTCWIGPRLPWPELKRRCCRELADIPAYCRCTALSILMDGAIPPGPDAQLEGRLEDLPGCPREVQRGFAATLVTEAECNLATISGVAECPWILGGGTMPSK
modifications: assayed as His6-GST fusion (tag omitted); disulfides
B2: the “pIC50 ± SE” value in series [10] stood at 6.32 ± 0.06.

B3: G32W: rec‐CTI variant, replacement of Gly32 with tryptophan (protein)
chain: B2 chain with W30G, G32W
modifications: assayed as His6-GST fusion (tag omitted); disulfides
Turning to B3, the “pIC50 ± SE” value in series [10] is recorded as 4.89 ± 0.06.

Source of the values: PMC5638086, “Assessment of the protein interaction between coagulation factor XII and corn trypsin inhibitor by molecular docking and biochemical validation” (Journal of Thrombosis and Haemostasis, 2017).
